In publication PMC5335569, “Biophysical studies suggest a new structural arrangement of crotoxin and provide insights into its toxic mechanism” (Scientific Reports, 2017):

Biological target: the molecule itself
Assay: small angle X-ray scattering

B1: Crotoxin B (enzyme)
chain: HLLQFNKMIKFETRKNAVPFYAFYGCYCGWGGQGRPKDATDRCCFVHDCCYGKLAKCNTKWDIYRYSLKSGYITCGKGTWCEEQICECDRVAAECLRRSLSTYKNGYMFYPDSRCRGPSETC
stoichiometry N: 4
